Literature values as cited in article PMC3763834.
Several values for one entry are separate records, joined by “and”; a condition that tells them apart may be missing. Identical values can stand only once.

Biological target: PKA catalytic subunit (UniProt P17612)

Kd: 1 nM and 0.1 nM
Substance: PKA RII subunit (from UniProt P13861)
